The target in the data set is Haemoglobin (Hb) (UniProt P69905;P68871 2-142;2-147). Nature of the data set: differential pulse voltammetry (electrochemical aptasensor); aptamer immobilized on electrode; DPV in 10 mM Tris-HCl (stated for clinical-range test; pH and temperature not given); EIS in 5 mM [Fe(CN)6]3-/4-, 0.1 M KCl; aptamer loaded in 5 mM MgCl2, 10 mM Tris-HCl, electrodes rinsed with 0.1 M PBS pH 6.5, 1 mM MgCl2. The settings on record: protein: commercial; chain copies: 2;2; label: 5' ferrocene; single strand, Mfold-predicted secondary structure.
Sequence of Haemoglobin (Hb) (P69905 2-142, chain 1 of 2): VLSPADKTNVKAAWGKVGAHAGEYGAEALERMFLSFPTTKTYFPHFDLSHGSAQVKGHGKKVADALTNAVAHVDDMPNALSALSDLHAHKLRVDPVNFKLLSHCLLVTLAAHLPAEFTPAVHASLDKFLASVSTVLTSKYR
Sequence of Haemoglobin (Hb) (P68871 2-147, chain 2 of 2): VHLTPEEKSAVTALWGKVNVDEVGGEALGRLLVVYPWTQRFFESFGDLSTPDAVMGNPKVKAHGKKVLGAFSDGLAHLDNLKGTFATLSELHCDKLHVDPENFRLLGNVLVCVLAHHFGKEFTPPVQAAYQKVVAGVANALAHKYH

B1: Hb aptamer (II) (ssDNA)
DNA: ACGCACACCAGAGACAAGTAGCCCCCCAAACGCGGCCACGGAACGCAGCACCTCCATGGC
modifications: 5' ferrocene; 3' thiol (SH), immobilized on gold screen-printed electrode
One may read the Kd as the concentration at which binding is half-saturated. On to B1, for which the Kd is 95.9 ± 40 µg/mL.
